Measurements as given in patent publication US20160108093A1 (WISCONSIN ALUMNI RESEARCH FOUNDATION, published 2016).
Where no end group is shown, it is not given here. [ ]: non-standard residue; d: D form.

B1: CG2 (peptide)
peptide: cyclo(SKV[dP]PTIAALLSPYSYSQ)
SMILES: CC[C@H](C)[C@@H]1NC(=O)[C@H]([C@@H](C)O)NC(=O)[C@@H]2CCCN2C(=O)[C@H]2CCCN2C(=O)[C@H](C(C)C)NC(=O)[C@H](CCCCN)NC(=O)[C@H](CO)NC(=O)[C@H](CCC(N)=O)NC(=O)[C@H](CO)NC(=O)[C@H](Cc2ccc(O)cc2)NC(=O)[C@H](CO)NC(=O)[C@H](Cc2ccc(O)cc2)NC(=O)[C@@H]2CCCN2C(=O)[C@H](CO)NC(=O)[C@H](CC(C)C)NC(=O)[C@H](CC(C)C)NC(=O)[C@H](C)NC(=O)[C@H](C)NC1=O
B2: CG3 (peptide)
peptide: cyclo(SKVVT[dP]PRYTIAALLSPYSYSQ)
SMILES: CC[C@H](C)[C@@H]1NC(=O)[C@H]([C@@H](C)O)NC(=O)[C@H](Cc2ccc(O)cc2)NC(=O)[C@H](CCCNC(=N)N)NC(=O)[C@@H]2CCCN2C(=O)[C@H]2CCCN2C(=O)[C@H]([C@@H](C)O)NC(=O)[C@H](C(C)C)NC(=O)[C@H](C(C)C)NC(=O)[C@H](CCCCN)NC(=O)[C@H](CO)NC(=O)[C@H](CCC(N)=O)NC(=O)[C@H](CO)NC(=O)[C@H](Cc2ccc(O)cc2)NC(=O)[C@H](CO)NC(=O)[C@H](Cc2ccc(O)cc2)NC(=O)[C@@H]2CCCN2C(=O)[C@H](CO)NC(=O)[C@H](CC(C)C)NC(=O)[C@H](CC(C)C)NC(=O)[C@H](C)NC(=O)[C@H](C)NC1=O

How the values were obtained:
[1] = molecular target: Aβ (1-42) (UniProt P05067 672-713); experiment: cell-based or functional assay
[2] = molecular target: the molecule itself; experiment: self-association: PICUP cross-linking of the peptide alone at 36 µM, gel, silver staining
Experimental: Peptides were also cross-linked by PICUP and analyzed for self-association. […] Cross-linked samples were then heated at 95° C. for 5 min and separated on a 10-20% Tris-Tricine gradient gel. Peptides were visualized by silver staining (SilverStain Kit, Pierce, Rockford, Ill.).
Peptide self-assembly was probed by photo-induced crosslinking (PICUP) followed by gel electrophoresis.

Binder | Aβ toxicity, MTS assay with primary mouse neuronal cultures (10 µM Aβ) [1] [µM] | binding result [2]
B1 | 10 | 
SKVVT[dP]PRYTIAALLSPYSYSQ [LG3] | 10 | 
B2 | 10 | 
Ac-PRRYTIAALLSPYSWS-NH2 (also called 16-mer linear peptide) [G16] |  | binds
